Test results published in a protein production outcome set (Wang et al. 2014).

Test: label from the status in PepcDB records

Sequence	protein production
MERLISHPPLMIVSDLDHTMVDHQDHENLSLLRFNSLWEYAYRRDSLLVFSTARSPVLYKELRKEKPLLTPDIIITSIGTEIAFGNSMVPDHAWVESLNSCKWNREIVLEETSKFPELTLQPKTEQRLHKVSFYIDEGKGEALTKELSQLLEKRGLDVKIIYSWGKNVDVIPRGAGKGEALEYLLKKLQAEGIFPVNTLACGDSEHDAELFSIPDVHGVMVSNSQEELLKWRSENALNNLKVIHSTERCADGIIQAIGHFNLGPDLSPRDVSEFLDRKMDNVNPGHEVVRFYLFYERLRRGEIKNYETYIASFKDSCAEKSLRDTIDELKKCYGDKRGKKFWVWVDQVLVTDTIPGKWIVKFDKWEQCEDESQCCKTTVEFTSKGGDLVWEKVKQIWSEESKVKDDNSSWIL	not failed
MIIVMSRRAAEADIAGVVAFIRSRGLREHISHGDERTVIGAIGDDRVLSVREVQTLPEVEKAVRILDTWKTVSRENRAEDSRVAAKGVAFGGGETVRIAAEPSVWSNADAVFLDPFFTSANLYDTLSADEGRGRCRRLAEQAASAHGAGKPVLVRVRNVRHVEAALNAGADILYLGGGLMSDLAVLNEAGSLNIPLVLCKDKHHSAEDWLNAAEYVVSRGNRHLILGESGVLGHTKGHPYRLDVESIVKVRQISHLPVIANITGLWSRDMPQEILYGLAKAAGACGIVGTCFEKAGG	failed
MTTEPAQALSPLGVLPPAGPTCVHLPLNVTPQELARYAVGLANARGGTVMVGVDVVGQEHAERDAGELHPLMITHAIFELSGGRLTVNVQHHRVPGGARVLTVFVPQAPYVLAAPDGAVMAWDGAHLVPVLPGEGEPVADRDYTAVVPPDASLADLDPAEVARLRLLGRRIDAANLPDLDFLQELGLLVPSGGALRPTLAAILLAGTDAALRAHLPQAEVCYFHHQANDVEFQFREDLRRPIPSLLLRLSELIQARNRFTPVQVGLFRVEVWDHDESVYREALLNALTHRDYTLRDVVHVHHYPDRLEIMNPGGFPGGITPGNILRHQPKRRNPLLAGVLARLGLVEQAGVGVDKMFSLMLRHGKEPPEYVNYPDAVTLTLHGSAFDSDFVRFVARKQEELPQLSLDMLIVLSLLSREGEAPRAQLARALQLPEDRTPRLLRQMEDLALITRAGIGRGIAYHLAPDVAAALGQEKQRGLSALPGLPEPAERPTLLAPPAAVAPAPAPAAPRRVSEPAPTSHAGPSPSETRAIALALARERGRVRNADLREVCGLTNQQAWRALRSLVNAGLLRRLGSGTRDAYYELGEGAGRREEG	failed
MGNLSKPVGIGAGGLDLLMPMHLRLDPLGEIAGCGPTLRKLFAESPVRRPFFDLFKVRRPTGIETPAALAARTGVRLHLTTLDGGVSLRGVATPKHEGRGLLLNLSFGISVIEAVRRHGLTDGDFAPTDLAVELLYLVEAKTAVAEELRRLNGRLERARRLAEEEALTDELTGLRNRRAIDQALEAVIATRRPFGLMHLDLDFFKEVNDSFGHAAGDEVLRAVAQVLSRETRTGDTVARIGGDEFMMLFPGLSDPAPMKRLAARVIADVARPIPFGGGVCRVSASIGMTLSVRYDRPDLARMLADADEALYAAKRAGRGTAVLSEGMRPERRRDP	failed
MAEHGETQADEEEEEQVWSWGAGTDGQLGTTKLQDELLPQLLSLTSLPSISMLACGGAHVIALTSGGKVFTWGRGSSGQLGHGDILNITLPKLVSFFDDSVITQAAAGWSHSGFVSDSGCIFTCGNGSFGQLGHGDTLSLSTPAKVSHFNNDSVKMVACGMRHSLVLFAGNQVCGFGSGKRGQLGFSSDRIKSVNLPCVVSGLKDVEVVRISANGDHSAAISADGQFFSWGRGFCGGPDVHAPQSLPSPLSFREVAVGWNHALLLTVDGEVFKLGSTLNKQPEKQQLQIDSSEALFEKVPDFDGVKVMQIAAGAEHSAAVTENGEVKTWGWGEHGQLGLGNTNDQTSPELVSLGSIDLRTKEIKVYCGSGFTYAVKRKQELSPTSS	failed
MISRNLKIYFRDRTAVFMSLLTVLIIIGLYAIFLGNNMEEMFKQASGKTVGIQELVNTWVIAGILSITPVTVSLAVFSLKVHDEELSIARSFAITSASRWRIVISYIVSGLVASFLLSVITLFVGEMYIWLTGGEFLPFESWIRLIGIILINVLCCSSIMFFIASLVKKASAFSSVSTIVGTVIGFIAGIYLPIGSLPAAVQTAMKCFPFTYGASTIREIMTKEPLKEVFAGNTGAMDATKEMIGITIYWGDKTVTTGLSLLILSAFAVVFGVLSVILMKRQTK	failed
MIEFLLNYYFMPFNLSVIALLILSMAETIGIYIGLRPSTFLKKFLPRWLSNSPLVNVKFSKVLILVFFLINFSFAGYFLQLCVFAQQQFFISPFYLIIPALIIGIFFTVFMIHCLDQVIKPQVEHQYSSLLGRLATISSGSARPGFSAQARVRDEFGQLHYVQVEPEFGELELQSQVILIRFRQTHYIAKRISASNHLFTPE	failed
MKIVAITSCPNGIAHTYMAQEKLEQVAKEMGVDIKVETQGGVGAENVLTTQDIEEADGVIIAADKQVDLSRFVGKRLINENVREGIHNPRGLIQRIINQDAPIY	not failed
GHMSEFVSIAARQEGAVGIIELARPDVLNALSRQMVAEIVAAVEAFDRNEKVRVIVLTGRGRAFAAGADIQEMAKDDPIRLEWLNQFADWDRLSIVKTPMIAAVNGLALGGGFELALSCDLIVASSAAEFGFPEVNLGVMPGAGGTQRLTKLIGPKRALEWLWTGARMSAKEAEQLGIVNRVVSPELLMEETMRLAGRLAEQPPLALRLIKEAVQKAVDYPLYEGMQFERKNFYLLFASEDQKEGMAAFLEKRKPRFQGK	not failed
MTTKFVVGYDGSAASRRALDFAMERAKAGGASIIVAHVLEWSPYSFLTPTEIEERHKRRAEEMARAETAILAPLKAELAGSGVEIETAIRYGQVADTLCDIATKSGAAQIFIARQGESGLAARVFGSVAGTLAQYAPVPCTIVP	failed
MATIEKRGSSYRARVTIYQHGKRDYLTKTFKTENEAKVWGTTLELEKAKGKAIAHQNTLFKDFYYLYVHTIKVNDVRKATFNNYLKAGLVINNLFPTAKLGKLDDVQMQKILDKYGETHSKKTVVELLKKIRTALRYAYAKGYIYNDFASLLKAHGKELPKRNKALSMSDLTKLKHYLLEHTDDEFNLMVLLEISTGLRRGEILGIKPEDVHYDGQYYCVEVRRSISPTTDDTKLKTKHSRRSVTIPKDVYDLLKTIPSKASGYLFDWFSFKQSELLKKLLKKIGIPSTTFHGLRDTHASFLFSNNIPLSYVSRRLGHDSILTTEKYYLELMPEKKHSQDANALNLLASL	failed
MKREAEGGFQNRYLSNCPGSSRLRVWVPIVEASPGRRPYPFRCQPCNFRLGGRAVGGLAAAQPGGRPRWRRAARRAARAPAPPWLPLPSSPRSNPLTRLLPWFKSIDLNKPIDKRIYKGTQPTCHDFNQFTAATETISLLVGFSAGQVQYLDLIKKDTSKLFNEERLIDKTKVTYLKWLPESESLFLASHASGHLYLYNVSHPCASTPPQYSLLKQGEGFAVYAAKSKAPRNPLAKWAVGEGPLNEFAFSPDGRHLACVSQDGCLRVFHFDSMLLRGLMKSYFGGLLCVCWSPDGRYVVTGGEDDLVTVWSFTEGRVVARGHGHKSWVNAVAFDPYTTRAEETASASGDGDPSGEEEEPEATSSDTGAPVSPLPKAGSVTYRFGSAGQDTQFCLWDLTEDVLSPHPPLARTRTLPGTPGATPPASGGSRAGETGAGPLPRSLSRSNSLPHPAGGGKAGGPSVSMEPGVPFSIGRFATLTLQERRDRGAEKEHKRYHSLGNISRGGSGGNSSNDKLNGPAPRSRLDPAKVLGTALCPRIHEVPLLEPLVCKKIAQERLTVLLFLEDCIITACQEGLVCTWARPGKAFTDEETETQAGEASWPRSPSKSVVEGISSQPGSSPSGTVV	failed
MSKLFPGEVFANTADFDTGIRQLLPRYDEMLEVICRCLPLTSRRILDLGCGTGELSLKILQRCPDAQVIALDYSPRMLKFAQNKIVASGYKERWTGLQADFGDWAINPETLNIGNEFDACVSSLAIHHLYDEMKLQLFQRIAASLTPNGCFWNADPILPESPTLAEIYQAAREEWVSEQGSNFTEVRAKVGDSSPQGYSNPDQLATLDTHLQMLTKSGFTTVAVPWKYYGLAVFGGWVKLEHHHHHH	not failed
MTNAGTTDLSWLPSDADEQLALGFKIVTNAYKTRVTSQEAEIRSLKGQLTEKQEQLSSIQKKYSNLEVQLIESTQRGNQLADENKQLITTIKKLNRDIDRLENLKKAVLNSIQEEHDVEDAHKYYSADDLLQTTAPRTMLEMNGNEDSCQSIINKIVNSDTHNIINGSFNSPYIGNVPLGEKNTDGRAFFRNARSRLSYEQFNQFLSNIKKLNNHQQKREETLKKAQAIFGEANLDLYEEFKVLISKHS	failed
VIAAHGWAGDATVWRAWQQRFEARGWHWDAIERGYGQREPHQPSWAELPGQRLVIAHSLGLHLLPEKVLQQADAVVSLAGFAAFVPAGAAGRALGVALKGMASCLGTSDEPAMLRKFLSRCASPLPLSALPNNPLLRGMHPSGRQRLQDDLVLLQQCQSLPDGWPEGASVLVVQGEQDAIVCPDSRTQLLQALPPSRTDHRLRPDEGHAVVTPAVLDLVVRWAGN	failed
MKNETLHTQEDIIKMLDSLLRPAEPFWNEFYANREKDVPFFENVPDENLVSYIQKKRVSKGKVLELGCGPGRNAIYLANEGFDVTAVDVSIEGINWAKERALAKGVEIEFICDSIFNLEVQNEFDFVYDSGCLHHIPPHRRVNYVDLIKNALKSGGYFGLTCFAAGDLDERNGSEITDWDVYRGWSLQGGLAYSEEKLREIFKGFEVIEIRKMEQIEQPNTMFGESFLWTALFKKNLEHHHHHH	not failed
MRVFLLLFLLFPVLELFLLVRVGMSIGFLWTFLLVVATSMLGLFVMRVAGFATALRARESLARGELPAQEMLEGLMVAVGGGLLLLPGFISDILGVICLLPITRRLLISKVRRRAEDQAMRQRAFADDLQTQANQGPASHRPNAIHQPTREPDVIEGEFEHRDK	failed
MVGTFLGTGASSGVPMLNCSCKVCTSSYSKNKRLRSSFFLESSSGIKLLIDTGPDIRQQLLREKIDRLDLVLYTHEHYDHIMGFDDIKFYTRCAPLNIYARDTAMAHIRNAFPYNFTSKPSLSGKADIIANVIRDFEPFFFKSLKIVPIPLIHGDIISLGYRVGNLAYLTDVKFIPEASYDYLKNLDLLIIDAMRIKPHPAHLNFSEAFCVIKKINPKISYFTHIAHDIMHEEFDYLEKDNIYLAYDGLKIYILEHHHHHH	failed
MRLFIMEFKHLMFSKTFLFYCLLIIIFTVLNCQQVLKHPINSDVYQPQNMTMYSTDKNLIMSNEIKELKNEVHQNNFKTYQFGFLKQKKLNDQQISKIKKLISKMEKTNNFHQFKNYSNSVSHVVGWGSQYSKNNISLFGIKNMSKSKYVKEKNIIKNKEYYYGAYSRYFSDIMGVVLGILPFFLGAQMILQDKKSNAIKTIHSKSISSYQLISTRVFTILVLAYLPVLLVSIYFVTCLSMIHQISMFSLFIFYKILILWTLPTLIFTIAMGFFVTIILNSYLGVMIQIVIWFINLNIGSRAIEGCYGSLLIPRHNTLFNAVFFYNHFNQILANRFTYFGLGLLLILLSTYIFDLKRREVGFNAKIFTNRYQN	failed
VDCIGCRKCEEVCLSDALDIMGKDVSVSELMDIIMQDYDFYISSGGGVTIGGGEMSLQTDFAVALLRECKKMMINTAVETQATTNVANYEKLAQVVDQFLIDIKHIDTTQHKALFGIGNENVRRNLERLMDLGANVVIRMPLVRGYNDSYDAITGAINYAMALSKRGNLQRIDILPYHQFGRN	failed
MFLKLFSLFLIIPLVEIYLLIKIGGIIGAFNTVLVILITASLGAYLTKSQGFRVFHQIQDATRQGYMPGNELLHGLFVLIGGFALLTPGFLTDAIGFSMLIPQIREIYVGIAKGIIRKKIEQGNFQMRVYTDFR	failed
MTEHCGAIKYFKSNFRRKRCLDFVCLTNLMFGLGSTPHGQVERADENNTLDLNNLPDDPSRDIFPFFEEGGFREKQTKDGKEYECRFCSLKFFKSQALGGHMNRHRQERETESLNKARELVLRNDSFPPHQGPPSFSYHQGDVHIGDLTQFKPMMYPPRHFSLPGSSSILQLQPPYLYPPLSSPFPQHNTNIGNNGTRHQTLTNSVCGGRALPDSSYTFIGAPVANGSRVAPHLPPHHGL	failed
